Assay: yeast display, Sf9 membrane polyspecificity reagent, FACS + sequencing; frameworks hold sequencing errors
How it was run: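 A synthetic nanobody library was expressed on Saccharomyces cerevisiae BJ5465 by galactose induction for 36–48 hours. The library was stained for 1 hour at 4 °C with 10% biotinylated, detergent-solubilized Sf9 membrane reagent and enriched with streptavidin microbeads before FACS. Low and high (top ~1%) gates were set on anti-HA fluorescence for expression and streptavidin fluorescence for reagent binding, and each polyreactivity label reflects the gate of origin.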

Row | Sequence | polyreactivity (PSR sort gate)
1 | QVQLVESGGGLVQAGGSLRLSCAASGITFSRYAMGWYRQAPGKERELVAAITWDGGRTYYADSVKGRFTISRDNAKNTVYLQMNSLKPEDTAVYYCAAGSAWWYYWGQGTQVTVSS | high polyreactivity
2 | QVQLEESGGGLDQAGGSLRLSCAASGLILDYNDIGGYRQAAGQERELVASITGGGSTYYADSVKGRFRISRDNAKNTVYLQMNSLKPQDTSVYSCNADPVGVYCFDLDYWGQGTQVTVSS | low polyreactivity
3 | QVQLVESAGGLVQAGGSLRLSCAASGRIFYYAMGWYRQAPGKEREFVAAISGSGGSTNYADSVKGRFTISRDNAKNTVYLQMNSLKPEDTAVYYCNAESWSWGFIYEYEYWGQGTQVTVSS | high polyreactivity
4 | QVQLVESGGGLVQAGGSLRLSCAASGRTFTRYAMGWYRQAPGKERELVAAISWSGGSTYYADSVKGRFTISRDNAKNTVYLQMNSLKPEDTAVYYCNAYYYYPEFNYWGLGTQVTVSS | high polyreactivity
5 | QVQLVESGGGLVQAGGSLRLSCAASGIIFVKNAMGWYRQAPGKERELVASISGSGGRTYYADSVKGRFTISRDNAKNTVYLQMKSLKPEDTAVYYCNTLLAPHARKARRHDYWGQGTQVTVSS | low polyreactivity
6 | QVQLVESGEGLVQAGGSLRLSCAASGSTFTYNAMGWYRHAPGKERELVAAIDWDGDTTYYADSVKGRFTISRDNAKNTVYLQMNSLKPEDTAVYYCAARPKYPYYARYDYWGQGTQVTVSS | high polyreactivity
7 | QDQLVESGGGLVQAGGSLRLSCAASGRIFDTYAMGWYRQAPGKERELDAAITRRGGSTYYADSVKGRFTISRDIAKNTVYLQMNSLKPEDTAVYYCAKSLVNRHYDYWGQGTQVTVSS | low polyreactivity
8 | QVQLVESGGGLVQAGGSLRLSCAASGSIFRIYAMGWYRQAPGKERELVAAIRNSGRTYYADSVKGRFTISRDNAKNTVYLQMNSLKPEDTAVYYCAAVGGRLRGDRGGYWGQGTQVTVSS | high polyreactivity
9 | QVQHVESGGGLVQAGGSLRLSCAASGRTFFENAMGWYRQAPGKEMELVAAISWDGGTTYADSVKGRFSISRDNAKNTVYLQMNSLKPEDTAVYYCNAEVRSNDARGDNDYCGQGTQVTVSS | low polyreactivity
10 | QVQRVESGGGLVQAGGSLRLSCAASGRIFRYYAMGWYRQAPGKERELVASISRRGGSTNYADSVKGRFTISRDNAKNTVYLQMNSLKPEYTAVYYSNAENWSPRGLYNYWGQGTQVTVSS | high polyreactivity
11 | QVQLVESGGGLVQAGCSLRLSCAASGRTFCYNSMGLYRQAPGKERELVAAISTSGGSTYYADSVKGRFTISRDNAKNTVYLQMNSLKPEDSAVYSCAADSHRSFSLYAYDSWGLGTQVTVSS | low polyreactivity
12 | QVQLVESGGGLVQAGGSLRLSCAASGRIFSVYDMGWYRQAPGKERELVAAISWSGGTTYYADSVKGRFTISRDNAKNTVYLQMNSLKPEDTAVYYCAARSRSRYDYWGQGTQVTVSS | high polyreactivity
13 | QVQLVESGGGLVQAGGSLRLSCAASASIFPDNTMGWYRQAPGKERELVAAIDGRGGTTYYADSVKGRFTISRDNAKNTVYLQMNSLKPEDTAVYYCARDIGHSARYDYWGQGTQVTVSS | low polyreactivity
14 | QVQLVESGGGLVQAGGSLRLSCAASGRIFTGNVMGWYRQAPGKERELVAAISRRGGGTYYADSVKGRFTISRDNAKNTVYLQMNSLKPEDTAVYYCAAQYRSQGQPKGGVLYYYWGQGTQVTVSS | high polyreactivity
15 | QVQLVESGGGLVQAGGSLRLSSAASGITIRYNDMGWYRQAPGKERELVAAITFSGGSTYYPDSVKGRFTISRDNAMNTVYLQMNSLKPEDTAVYYCAKLGSTSSRGNYDYWGQGTQVTVSS | low polyreactivity
16 | QVQLVESGGGLVQAGGSLRLSCAASGFTFEFYVMGGYSPAPGKERELVAAISTTGGSTYYADSVKGRFTISRDNAKNTVYLQMNSLKPEDTAVYYCAAEYYLWWKSHLWEYGYWGQGTQVTVSS | high polyreactivity
17 | QVQLQESGGGLVQAGGSLRLSCAASGYISLAQTIGWYRQAQGKEREFVASIALGSSTYYTDSVKGSFTISRDNAKTTVYLQMNSLKPEDTAVYYCAARVGASYAHDYWGQGTQVTLSS | low polyreactivity
18 | QVQLVESGGGLVQAGGSLRLSCAASGSTFGKYAMGWYRQAPGKERELVAAITNGGRTNFADSVKGRFTISRDNAKNTVYLQMNSLKPEDTAVYFCNKARYGTDDYEYWGQGTQVTVSS | low polyreactivity
19 | QVQLVESGGGLVQAGGSLRLSCAAYGRTFGPNVMGWYRQAPGKERELVAVITSSGGRTYYADSVKGRFTISRDNAKNTVFLQMNSLKPEDTAVYSCAADAKKFVGTKNAEHVYWGQGTQVTVSS | low polyreactivity
20 | QVQLVESGGGLDQAGGSLRLSCAASGRTYYLYAMGWYRQAPGKERELVAAITFNGGSTYYADSVKGRFTISRDNGKNTVYLQMNSLKPEDTAVDYCAGRLSKRSGYYYWGQGTQVTVSS | high polyreactivity
21 | QVQLVESGGGLVQAGGSLRLSCAASGRTFVTYAMGWYRQAPGKEREFVAAITWSTGTSTYYADSVKGRFTISRDNAKNTVYLQMNSLKPEDTAVYYCAVDIWWPTWYYIYWGQGTQVTVSS | low polyreactivity
22 | QVQLVESGGGLVQAGGSLRLSCAASGRTFYVYVMGWYRQAPGKEREFVAAINYGSTYYADSVKGRFTISRDNAKNTVYLQMNSLIPEDTAVYYLGQGTQVTVSS | low polyreactivity

Row | Sequence | polyreactivity (PSR sort gate)
23 | QVQLVESGGGLVQAGGSLRLSCAASGLIFQLYAMGWSRQAPGKERELLAAITIRDGSTYYADSVKGRFTISRDNAKNTVYFQMNSLKPEDTAFYFCAAEPVYYYPWSQYDYWGQGTQVTVSS | high polyreactivity
24 | QVQLVESAGGLVQSGGSLRLSCPASGRIFYLNAQGWYRQAPGKERELVAAITWSGGRTYYADSVKGRFTISRDYAKNSVYLQMNSLKPEDTAVYYCAAVPRPGPNTVLTPYGYWGQGTQVTVSS | high polyreactivity
25 | QVQLVESGGGLVQAGGSLRLSCAASGRTFRRYAMGWYRQAPGKERELVAAISKSGGRTYYADSVKGRFTISRDNAKNTVYLQMNSLKPEDTAVYYCAADHIQTAGGDYWGQGTQVTVSS | high polyreactivity
26 | QVQLVESGGGLVQAGGSLRLSCAASGSIFRYNAMGWYRQAPGKERELVAAISGRGTSTYYADSVKGRFTISRDNAKNTVYLQMNSLKPEDTAVYYCAAVYFRTFLVEYYYWGQGTQVTVSS | high polyreactivity
27 | QVQLVESGGGLVQAGGSLRLSCAASGGTFHSNAMGWYRQAPGKERELVAAISWSDDTTYYADSVKGRFTISRDNAKNTVYLQINSLKPDDTAVYYCATVFFVLPPSRFDSWGQGTQVTVSS | low polyreactivity
28 | QVQLVESGGGLVQAGGSLRLSCAASGSTFDYYVMGWYRQAPGKERELVAAISLSGGSTYYADSVKGRFTISRDNAKNTVYLQMNSLKPEHTAVYYCAAQTKPASRVTYYWYYYWGQGTQVTVSS | high polyreactivity
29 | QLQLVESGGGLVQAGGSLRLSCAASGSIFGDNAMGWYRQAPGKERELVAAISSSGGSTYADSVKGRFTISRDNAKNTVYLQMNSLKPEDTAVYYCATQIAWGTYVINPQMDYWGQGTQVTVSS | low polyreactivity
30 | QVQLVESGGGLVQAGGSLRLSCAASGRIFRYYDMGWYRQAPGKERELVAAITSDGSTKDADSVKGRFTISRDNAKNTVYLQMNSLKQEDTAVYYCNAEVLPTWYSPQLDYWGQGTQVTVSS | low polyreactivity
31 | QVQLVESGGGLVQAGGSRRLSCAASGRIFSQNTRGCYRQAPAKERELVAVISWRCGRTSYSDSVKGRFTISRDNSKNTVFLKMKSLKQEDTAVYYCAASAKLHYYRTYRYNYWGQGTQVTVSS | high polyreactivity
32 | QVQLVESGGGLVQAGGSLRLSCAASGFTFDYYAMGWYRQAPGKDRELVAAITSGSITYYADSVKGRFTISRDNAKNTVYLQMNSLKPEDTAVYYCARYGYRRVGSRWAEFDYWGQGTQVTVSS | high polyreactivity
33 | QVLLVESGGGLVQAGGSLRLSCAASGGTFGAYDMGWYRQAPGKERELVATITSGGRTNYADSVTGRFTISRDNAKNTVYLQMNSLKPVDTAVYYCNARYYGYDAPYHTYEYYYWGQGTQVTVSS | low polyreactivity
34 | QVQLVESCGGLLQAGGSLRLSCAASGRTFTQYAMGCYRQAPGKERELVAAISWSDDITYYADSVKGRCTISRDIAQYTVYLQMNSLKPEDTAVYYCATEGYWGYDYDYWGQGTQVTVSS | high polyreactivity
35 | QVQLVESGGGLVQAGGSLRLSCAASGFIFYYYAMGWYRPAPGKERELVAAISGESTSTYYADSVKGRFTISRDNAKNTVYLQMNSLKPEDTALYYCAADLYHWDGYEYWGQGTQVTVST | high polyreactivity
36 | QVLLQESGGLVQAGCSLRMSCAASGSISTALSMGWYRQAPGKERELVATISDGASTNYADSVKGRFTISRVNAKNTVYLQMNSLKPEDSEVYYCAAQSQYRPDHRYWGQGTQVTVSS | high polyreactivity
37 | QVQLVESGGGLVQAGGSLRLSCAASGFILAYYAMGWSRQAPGKERELVAAISIGSSTDYADSVKGRFTISRDNAKNTVYLQINSVKPEDTAVYDFAARDYYYEYDYWGQGTQVTVSS | low polyreactivity
38 | QVQLVESGGGLVQAGGSLRLSCAASGSTFRGYAMGWYRQAPGKDRELVATISGSDGTTYYADSVQGRFTISRDNAKKTVYLQMNSLKPEDTAVYFCAAGETFEMYYWGQGTQVTVSS | low polyreactivity
39 | QVQLVESGGGLVQAGGTLRLRCAASGRTFKDYAMGWYRQAPGKERELVAAISWSGGDTYYADSVKGRFTISRDNAKNTVYFQLNSLKPEDTAVYYCNADPSGVFFYSLEFDYWGQGTQVTVSS | low polyreactivity
40 | QVQLVESGGGLVQAGGSLRLSCAASGRTFRFYDMGWYRQAPGKERELVAAISRGGGSTYYADSVKGRFTISRDNAKNTVYLQMNSLKPEDTAVYYCAAKPYKTRSSYWGDYYWGQGTQVTVSS | high polyreactivity
41 | QVQLVESGGGLVQAGGSLRLSCAASGRILGFYAMGWYRQAPGKEMELVARINWSGTRTYYADSVKGRFTISRDNAKNTVYLQMNSLKPEDTAVYYCAAERYPYGVTYSKLDYWGQGTQVTVSS | high polyreactivity
42 | QVQLVESGGGLVQAGGSLRLSCAASRRILRVYAMGWYRQAPGKERELVASISSGGSTNYADSVKGRFTISRDNAKNTVYFQMKSLKPEDTAVYYCNRRWVHTYDYWGQGTQVTVSS | high polyreactivity
43 | QVQLVESGGGLVQAGGSLRLSCAASGSTFSVNAMGWYRQAPGKEREFVARITWRGGSTYYADSVKRRFTISRDNAKNTVYLPMNSLKPEDTAVYYCAATLRYWWRSSYEDYYWGQGTQVTVSS | low polyreactivity

— the nanobody polyreactivity screen of Harvey et al. (2022)
